B1: C6-mCherry chromobody (expressed in transfected H1299 cells) (other, not shown: small tags and cut ends)
VHH: MADVQLVESGGGLVQAGDSLRLSCAASGLTFSRYAMGWFRQAPGNEREFVAVITASGRTTLYADSVKGRFTISRDNAKNTVALQMQSLKPEDTAVYYCAADYGTSRYTRRQSEYEYWGQGTQVTVSSAAA
notes: Expressed under the β-actin promoter from pβA-C6-E6T-mCherry; junctions not spelled out; also called C6 chromobody; C6 nanobody-mCherry
B2: C6-mCherry: C6 coding region fused in frame to mCherry, expressed by transfection (protein)
VHH: B1 VHH
modifications: left off: small tags and cut ends
notes: C6 coding region fused in frame to mCherry, expressed by transfection

Experiments:
[1] = biological target: T1, γ-H2AX (histone H2AX phosphorylated at serine 139) in drug-treated H1299 or U2OS cells or their extracts (human, UniProt P16104 1-143, phosphorylation of serine at position 139 (S139)); assay: mCherry fluorescence in transfected H1299 cells after CSK wash
T1 construct: Endogenous nuclear protein of H1299 and U2OS cells (fixed, living, or nuclear/histone extracts), not on the cell surface; also called gammaH2AX; γ-H2AX foci
Description: Thus, despite their solubility in mammalian cells, these reagents cannot be transfected into cells to detect with precision γ-H2AX after drug treatment likely due to too high chromobody expression levels.
For the analysis by classical immunofluorescence microscopy, the transfected or transduced cells were fixed with 4% paraformaldehyde for 20 minutes and, after permeabilization with 0.2% Triton X100 for 5 min, they were incubated with mAb 3F4 or VHH preparations diluted in PBS containing either 10% fetal calf serum or 2% BSA. Where indicated, the cells were treated with CSK-100 modified buffer (100 mM NaCl, 300 mM sucrose, 3 mM MgCl₂, 10 mM HEPES pH 6.8, 1 mM EGTA, and 0.2% Triton X-100) for 5 minutes prior to fixation. […] Where indicated, Alexa 568 labelled-C6B molecules were used. The labelling of the purified bivalent C6 equipped with a cysteine residue at the C-terminus was performed essentially as previously described (Shaner, N.C. et al.; Nat. Biotechnol. 2004, 22, 1567-1572). Briefly, purified protein in 0.1 M KH₂PO₄ pH 6.5, 150 mM NaCl, 1 mM EDTA, 250 mM sucrose was mixed with a 1.2 molar amount of Alexa Fluor 568 maleimide derivative (ThermoFisher Scientific). […] The amount of fluorophore per bivalent C6 in the flow-through was calculated by spectrophotometry with a Nanodrop 2000 device (ThermoFisher Scientific). […] The signal was recorded with a Leica DFC350FX camera. […]

γ-H2AX in H1299 cells = biological target: T2, γ-H2AX in H1299 cells (Homo sapiens, UniProt P16104); assay: Chromobody expression by transient transfection in H1299 cells with CSK buffer wash prior to fixation; type: cell-based; details: transfected H1299 cells
T2 construct: endogenous in cells; host or cells: H1299
From the text: The pβA-scFv-eGFP, a derivative of pDRIVE-hβ-actin (Rinaldi, A.-S. et al.; Exp. Cell Res. 2013, 319, 838-849, doi:10.1016/j.yexcr.2013.01.011) was modified by PCR to insert in frame to the scFv the E6 tag and the mCherry protein using E6T-HindIII-For/E6T-HindIII-Rev and mCherry-For/mCherry-Rev primer pairs, respectively. This vector which carries unique NcoI and SpeI restriction sites was used to sub-clone the VHH variants as described above, thereby generating pβA-C6-E6T-mCherry, pβA-C6M-E6T-mCherry, pβA-C6B-E6T-mCherry and pβA-C6BM-E6T-mCherry.
The day before transfection, 8×10^4 cells were plated in 12-well culture plates containing glass coverslips. […]
For the analysis by classical immunofluorescence microscopy, the transfected or transduced cells were fixed with 4% paraformaldehyde for 20 minutes and, after permeabilization with 0.2% Triton X100 for 5 min, they were incubated with mAb 3F4 or VHH preparations diluted in PBS containing either 10% fetal calf serum or 2% BSA. […] The amount of fluorophore per bivalent C6 in the flow-through was calculated by spectrophotometry with a Nanodrop 2000 device (ThermoFisher Scientific). […] The signal was recorded with a Leica DFC350FX camera. […] For the measurement of the nuclear fluorescence intensity, the images of microscopy fields were acquired with the 20× objective. […]

Molecule	binding result [1]	nuclear chromobody signal after CSK treatment (γ-H2AX in H1299 cells)	nuclear chromobody signal after CSK treatment (γ-H2AX in H1299 cells; listed as C6 chromobody)
B1	no binding	–	–
B2	–	entirely washed off	lost in both drug-treated and untreated cells
